{"source": "the NTF2 design screens of Basanta et al. (2020)", "data": [{"test": "protease stability score; higher = more stable; yeast display proteolysis, trypsin and chymotrypsin;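 also: log10 excess protease needed over predicted unfolded state with 0 meaning unfolded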", "values": [{"sequence": "DESRKAREYMDKFKEIMDTGDPDKLRNLVPPDVTMQYGDRSLKGREEFVEHLQELLERADHVDVTVVDVKQDGDQLHFEVRVTYEENGERREYTFVFVAIVQGDKVRVKEMREK", "protease stability score": 0.065}, {"sequence": "DREEVRQVDQWMKNQQRNNPDELVKLADPNVEFRIGDKTVHGMRRYADDVRRKREHIRLEFKHMKIEDQNGRVILRAKAQREHNGKPETFTMQITFEAHNGRIKKAVITTQK", "protease stability score": 0.044}, {"sequence": "DEEKQSTRALQMLHNIATGNEREAQKLMDEDVKLQVGDKHLHGKEQVRHRIHELLRTVDHMDVKDMHYSGDHVSVTAIARVNGQNQHVELSAHVSNGTIKDIRVRYS", "protease stability score": 1.25}, {"sequence": "DESNREVYQKLLNAQTKGDEETAKELADPNASVQIGDKQIHGMDQYVKQMTRDKRRARVRIRDVRVDVQGDNIRVSAHFQEDHNGKPDERTMTQSYKVENGKMKSASVHSLS", "protease stability score": -0.124}, {"sequence": "DDTDQAEKMMEKLKDAFDTGDEDQVLKLADKDVKVDVGDKSYHGKEEYLDLFRHWLKKVDHLRLEVKHVNQNGDEISVTAKLVLDNNGETTDHTLHLVARSVNGDVVLQSMNNG", "protease stability score": 1.16}, {"sequence": "EEENVKVAQEIINIEDRGDSDQIHRLFDPNAHWTVGDQDIHGRETWLTKFRKEREEMRVRFRTLHFNAHNGRAVVRVEQEVTHNGTPTTKVYIMKVEFRNGKVKSIVFQSDG", "protease stability score": 0.235}, {"sequence": "DEDAVRLAHKFQDVLNKGDPDKAMRLADPNARVQIGDTEIRGREQLSHHVNEMSNSIRFDLKHVDAQTRGDHVDVRVDQINEVDGRPTRNTDKMTIQIKNGKIVNVNVRVDEDRKQQERD", "protease stability score": -0.632}, {"sequence": "DEEDQRTIAKEVVKVMETGDEDRMRELVDEDVKVQYGDKTVHGREQAQRAMKDLRRRADHITMDSVTVHNGEITIKAQLKYNGQNQRVVVQVRVHNGKIKEFRFREQ", "protease stability score": 1.34}, {"sequence": "DEDLLKQADRWVKNLTRGNFKDLQKLFPPDATVQYGDNHIHGMEKISHEWKKEQEEMRIRVDRVQNEHQGEKAVVDLHYKVTHNGKPEENVVILFIEKHNGHMIFMKIQKTG", "protease stability score": 0.739}, {"sequence": "DEEKQDTWAKEFVKMLKQGNKTDARRLFDPNATLEYGDKRVHGREQAVEAQKQRSDKVDHMQVDSVSAHNGKMDIDLVLNVNGERKRQRVVANIHNGKIKYFSVQDS", "protease stability score": -0.248}, {"sequence": "DSDQSKREMDKFLEMVSTGDPDEVNRLLDKDAHAHVGDQTYHGREEISHMWKELREKIDHLEVHDYKVNGNKLEVDMHATINGQNVVFTVVAVLRNGHFESVEVQYRSEEEEEKVKR", "protease stability score": 0.452}, {"sequence": "DEEHVKKIIKKVADDLQRGDEDNLKHLMDKDVRVEIGDKEVRGKDEAAKELAKFLSRADHFQVDHVDVKGNNARIHVLVNINGRERRVTLILTMHNGRLKNVRFDPENEQTLRN", "protease stability score": 1.18}, {"sequence": "DEDEERKAVERFLDALKTGDPDKFKKLVDPNVNIQVGDKEINGREQYAHEVHRRKKRADHLEVEHVNVKNGKVQIFVVINVDGRSHHYVLDAHIHNGRIVEMKVEHQ", "protease stability score": 0.08}, {"sequence": "DEDHQAEKIFRDLVEAFKNGDEKRAEELFDPNARLQYGDKTYHGRKAASRLVSHVRTEFDHVDWQIKSVTRTGDKIDIDVDATADHNGHQDKFKIIITLKVTNGKAVLKEVRFK", "protease stability score": 1.94}, {"sequence": "DETREAQEIAKRIHKAVEENDEKQLEDQMPPDASVEVGDKTIHGRSRIARELWEEVETADHVNVSITSIRVDGDKVHVDMRYQFDDNGDDDVKHQKAQYVRNGDHFVLKNVHRK", "protease stability score": -0.225}, {"sequence": "EDELRDQFKRFMNAWERGDPDKLRSLVDPNAEVVVGDKVYHGMTHAADEIVRHMKESRYTIKIESINVNGDNIEVTARVTADHNGKPQDASFHASARLENGHVTSMEVQIRE", "protease stability score": 0.916}, {"sequence": "DEDSEAHKLLRELEKVLSTGDEDKMRRLADPNASIRIGDTQIRGRTQIQDHVKRHKEHVDKVSIDVKEVTAQGNKANMKYVIRVQINGRTHQEQVRVDVDLQGDKFKIKQWTEG", "protease stability score": 0.055}, {"sequence": "DDQLRKKVKTFIRVIQSGNTQEAKKLMDPNARYHVGDKTVDGMDQWATIMTKLKDEMRIQLNVTSVTATNGHIHVRVEVNVDVNGRPINVTVNVYFHIENGRIQRVHYQMDPDEFKHIQR", "protease stability score": -0.135}, {"sequence": "DKEDAEKVMKTMMKVVEKGDPEQLMKVGSEGVEYQAGDLKAHGPEALKQVMDYLQKHGVRLEIKHAEVEGNTVRTYVEYKNGEETDTVEANADVDGGKIDRVEVEVGERAEKWLKHG", "protease stability score": -0.57}, {"sequence": "DKDDQKRFTDTATKILQHNNPEKMRELADKDARLVVGDRTYTGRRQIVRHMEHLFRRVDHVQIKHVDVRGDHVEIDAVLDYNGRKERMTFVFQAHNGRIKQVEVQTG", "protease stability score": 0.603}]}]}
